The target of the assay is complement C1s (UniProt P09871). Put plainly: cell-based or functional assay.
UniProt P09871, sequence (P09871 16-688 limits assumed): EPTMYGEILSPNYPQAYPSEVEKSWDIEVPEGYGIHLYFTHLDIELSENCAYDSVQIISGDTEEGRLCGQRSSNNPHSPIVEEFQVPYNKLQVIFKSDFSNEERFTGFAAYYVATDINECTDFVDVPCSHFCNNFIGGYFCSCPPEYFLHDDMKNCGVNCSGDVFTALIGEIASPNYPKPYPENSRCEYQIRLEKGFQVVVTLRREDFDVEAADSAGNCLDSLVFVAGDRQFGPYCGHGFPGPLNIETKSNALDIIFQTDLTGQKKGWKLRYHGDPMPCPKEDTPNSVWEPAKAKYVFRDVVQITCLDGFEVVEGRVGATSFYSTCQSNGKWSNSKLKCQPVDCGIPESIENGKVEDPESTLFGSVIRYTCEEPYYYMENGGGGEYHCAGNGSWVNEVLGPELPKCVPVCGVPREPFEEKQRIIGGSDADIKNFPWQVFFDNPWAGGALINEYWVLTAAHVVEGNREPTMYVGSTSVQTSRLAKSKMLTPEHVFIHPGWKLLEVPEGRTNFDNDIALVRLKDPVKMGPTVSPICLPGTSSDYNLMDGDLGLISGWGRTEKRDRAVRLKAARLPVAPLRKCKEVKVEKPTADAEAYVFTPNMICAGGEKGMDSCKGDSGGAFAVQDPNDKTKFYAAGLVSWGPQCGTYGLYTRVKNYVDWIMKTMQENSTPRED

TNT009 (antibody) returned a concentration blocking C3 fixation on sNF02.2 Schwann cells opsonized with MMN-patient serum (flow cytometry) of 53 µg/mL and a lowest concentration blocking C3 deposition on fixed iPSC-derived motor neurons (titration 3-200 µg/mL) of 12 µg/mL.

The values are drawn from patent publication US20250066460A1.
